According to publication PMC10092196 (Human Mutation, 2022):

Assays:
[1] = target: the molecule itself; test: SEC
[2] = target: the molecule itself; test: SEC with right-angle light scattering

B1: full-length wild-type human PUS3 protein (pseudouridine synthase 3) (enzyme, UniProt Q9BZE2 1-481, looked up)
chain: MAYNDTDRNQTEKLLKRVRELEQEVQRLKKEQAKNKEDSNIRENSAGAGKTKRAFDFSAHGRRHVALRIAYMGWGYQGFASQENTNNTIEEKLFEALTKTRLVESRQTSNYHRCGRTDKGVSAFGQVISLDLRSQFPRGRDSEDFNVKEEANAAAEEIRYTHILNRVLPPDIRILAWAPVEPSFSARFSCLERTYRYFFPRADLDIVTMDYAAQKYVGTHDFRNLCKMDVANGVINFQRTILSAQVQLVGQSPGEGRWQEPFQLCQFEVTGQAFLYHQVRCMMAILFLIGQGMEKPEIIDELLNIEKNPQKPQYSMAVEFPLVLYDCKFENVKWIYDQEAQEFNITHLQQLWANHAVKTHMLYSMLQGLDTVPVPCGIGPKMDGMTEWGNVKPSVIKQTSAFVEGVKMRTYKPLMDRPKCQGLESRIQHFVRRGRIEHPHLFHEEETKAKRDCNDTLEEENTNLETPTKRVCVDTEIKSII
stoichiometry N [1]: 2

B2: full-length human PUS3 Y71C mutant (enzyme, UniProt Q9BZE2 1-481, looked up)
chain: MAYNDTDRNQTEKLLKRVRELEQEVQRLKKEQAKNKEDSNIRENSAGAGKTKRAFDFSAHGRRHVALRIACMGWGYQGFASQENTNNTIEEKLFEALTKTRLVESRQTSNYHRCGRTDKGVSAFGQVISLDLRSQFPRGRDSEDFNVKEEANAAAEEIRYTHILNRVLPPDIRILAWAPVEPSFSARFSCLERTYRYFFPRADLDIVTMDYAAQKYVGTHDFRNLCKMDVANGVINFQRTILSAQVQLVGQSPGEGRWQEPFQLCQFEVTGQAFLYHQVRCMMAILFLIGQGMEKPEIIDELLNIEKNPQKPQYSMAVEFPLVLYDCKFENVKWIYDQEAQEFNITHLQQLWANHAVKTHMLYSMLQGLDTVPVPCGIGPKMDGMTEWGNVKPSVIKQTSAFVEGVKMRTYKPLMDRPKCQGLESRIQHFVRRGRIEHPHLFHEEETKAKRDCNDTLEEENTNLETPTKRVCVDTEIKSII
stoichiometry N [2]: 2

B3: full-length human PUS3 D118A mutant (catalytic site) (enzyme, UniProt Q9BZE2 1-481, looked up)
chain: MAYNDTDRNQTEKLLKRVRELEQEVQRLKKEQAKNKEDSNIRENSAGAGKTKRAFDFSAHGRRHVALRIAYMGWGYQGFASQENTNNTIEEKLFEALTKTRLVESRQTSNYHRCGRTAKGVSAFGQVISLDLRSQFPRGRDSEDFNVKEEANAAAEEIRYTHILNRVLPPDIRILAWAPVEPSFSARFSCLERTYRYFFPRADLDIVTMDYAAQKYVGTHDFRNLCKMDVANGVINFQRTILSAQVQLVGQSPGEGRWQEPFQLCQFEVTGQAFLYHQVRCMMAILFLIGQGMEKPEIIDELLNIEKNPQKPQYSMAVEFPLVLYDCKFENVKWIYDQEAQEFNITHLQQLWANHAVKTHMLYSMLQGLDTVPVPCGIGPKMDGMTEWGNVKPSVIKQTSAFVEGVKMRTYKPLMDRPKCQGLESRIQHFVRRGRIEHPHLFHEEETKAKRDCNDTLEEENTNLETPTKRVCVDTEIKSII
binding result [1]: binds
